Here are results for eight molecules from article PMC8139980, “Qki activates Srebp2-mediated cholesterol biosynthesis for maintenance of eye lens transparency”.

Data set [1] concerns the target T1, Qki-5 full-length (UniProt Q9QYS9 1-341).
T1 sequence: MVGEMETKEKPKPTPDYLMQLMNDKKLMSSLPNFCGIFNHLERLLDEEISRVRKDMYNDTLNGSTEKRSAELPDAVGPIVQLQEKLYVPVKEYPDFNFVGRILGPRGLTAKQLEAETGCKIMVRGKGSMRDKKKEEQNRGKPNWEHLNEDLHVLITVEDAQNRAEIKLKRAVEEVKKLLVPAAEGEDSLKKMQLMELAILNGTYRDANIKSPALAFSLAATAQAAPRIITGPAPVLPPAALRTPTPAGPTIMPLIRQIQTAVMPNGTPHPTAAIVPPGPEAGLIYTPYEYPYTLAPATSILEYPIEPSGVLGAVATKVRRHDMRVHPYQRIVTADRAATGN
Kind of data set: MST; Kd only in figure; MST: 20 nM Atto488-protein, PBS with Tween-20 (0.1% in 2x protein stock), 25 C; ITC: 50 mM Tris pH 7.5, 150 mM NaCl, 20 C. Conditions: protein: recombinant; tags: N-terminal Trx-His6 (PreScission site); Atto488-NHS labeled for MST; chain copies: 2.

In data set [2] the target is T1, Qki-5 full-length. The data set is described as follows: MST; MST: 20 nM Atto488-protein, PBS with Tween-20 (0.1% in 2x protein stock), 25 C; ITC: 50 mM Tris pH 7.5, 150 mM NaCl, 20 C. As to conditions: protein: recombinant; tags: N-terminal Trx-His6 (PreScission site); Atto488-NHS labeled for MST; chain copies: 2.
Data set [3] has as its target T1, Qki-5 full-length. Kind of data set: ITC; Kd only in figure; MST: 20 nM Atto488-protein, PBS with Tween-20 (0.1% in 2x protein stock), 25 C; ITC: 50 mM Tris pH 7.5, 150 mM NaCl, 20 C. Conditions: protein: recombinant; tags: N-terminal Trx-His6 (PreScission site); Atto488-NHS labeled for MST; chain copies: 2. (Isothermal titration calorimetry measures the heat released or taken up as one component is titrated into another.)

The target of data set [4] is T2, Qki-5 STAR domain (UniProt Q9QYS9 7-214).
T2 sequence: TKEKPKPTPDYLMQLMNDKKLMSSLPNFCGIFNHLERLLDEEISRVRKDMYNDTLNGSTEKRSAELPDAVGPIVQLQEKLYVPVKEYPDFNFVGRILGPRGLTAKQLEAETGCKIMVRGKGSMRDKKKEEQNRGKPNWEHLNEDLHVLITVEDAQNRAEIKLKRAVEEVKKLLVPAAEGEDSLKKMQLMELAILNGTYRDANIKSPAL
The description is as above. Conditions: protein: recombinant; tags: N-terminal Trx-His6 (PreScission site); chain copies: 2.

In data set [5] the target is T2, Qki-5 STAR domain. The data set is described as follows: ITC; text says KH domain of Qki; assayed construct is STAR; MST: 20 nM Atto488-protein, PBS with Tween-20 (0.1% in 2x protein stock), 25 C; ITC: 50 mM Tris pH 7.5, 150 mM NaCl, 20 C. Conditions: protein: recombinant; tags: N-terminal Trx-His6 (PreScission site); chain copies: 2.

Usually Kd stands for the constant that tells how readily two partners part at equilibrium.

B1: QDE5 (ssDNA)
DNA: CAGATAACGCG
Turning to B1, the binding result with Qki-5 full-length [1] was “binds”.

B2: QDE4 (ssDNA)
DNA: GGGGTAAGGGG
B2: in the data set with Qki-5 full-length [2], the equilibrium dissociation constant (Kd) was 81 µM.

B3: QDE3 (ssDNA)
DNA: CCTGTAACTGG
Turning to B3, the binding result in the data set with Qki-5 full-length [1] is on record as “binds”.

B4: QDE2 (ssDNA)
DNA: CTTACGCTAAG
On to B4, for which the binding result with Qki-5 full-length [1] was “binds”.

B5: QRE2 (ssRNA)
RNA: UUCACUAACAA
As for B5, the binding result in the data set with Qki-5 full-length [3] and in the data set with Qki-5 STAR domain [4] was “binds” in each case.

B6: QDE5-m (ssDNA)
DNA: CAGAGCGCGCG
For B6, the Kd with Qki-5 full-length [2] came to 83 µM.

B7: QRE1 (ssRNA)
RNA: CUUCUUAAUAUAACUGCCUUAAACUUUAAU
As for B7, in the data set with Qki-5 full-length [1], the binding result is “binds”.

B8: QDE1 (ssDNA)
DNA: CCAGTAACCAG
Consider B8, for which the figures for the Kd with Qki-5 STAR domain [5] and with Qki-5 full-length [2] were 11.9 µM and 2.01 µM, respectively.
